Results: article PMC11444335, “Next-generation cell-penetrating antibodies for tumor targeting and RAD51 inhibition” (Oncotarget, 2024)
Where a chain is given by its changes, count along the chain named. Names may count otherwise. One block for each binder: values may come before it.

Target: T1, human RAD51 (Homo sapiens, UniProt Q06609)
T1 construct: DNA repair protein RAD51, human, expressed from the CMV-hRAD51 plasmid (Addgene #125570); Endogenous RAD51 of the MCF7 cells is also present and would be detected by the same anti-RAD51 blot; also called hRAD51; source: MCF7, transiently transfected with CMV-hRAD51 plasmid, in cells and lysate
T1 sequence (Q06609 whole entry): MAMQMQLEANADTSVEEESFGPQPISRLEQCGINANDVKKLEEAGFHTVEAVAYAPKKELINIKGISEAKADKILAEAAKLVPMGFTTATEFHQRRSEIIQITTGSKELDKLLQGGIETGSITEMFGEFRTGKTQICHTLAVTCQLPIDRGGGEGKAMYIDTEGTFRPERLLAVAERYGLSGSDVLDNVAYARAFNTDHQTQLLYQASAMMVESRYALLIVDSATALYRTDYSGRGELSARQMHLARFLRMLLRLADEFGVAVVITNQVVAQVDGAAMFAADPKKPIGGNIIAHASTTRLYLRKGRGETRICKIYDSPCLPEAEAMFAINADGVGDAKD
Assay: cross-linking + co-IP; CLIP: MCF7 cells transfected with 10 ug CMV-hRAD51 plasmid, treated with 500 nM purified antibody for 6 h, UV crosslinked, lysed; antibody captured on Protein A/G beads, eluate blotted with anti-RAD51; RAD51 signal normalized to Fc signal of the lysate and to WT
Settings: one partner purified

binding result: binds
B1: fully humanized full-length 3E10 variant V31 (VH3 + VL1, IgG1) (antibody, V domains shown)
VH: EVQLVESGGGLVQPGGSLRLSCAASGFTFSNYGMHWVRQAPGKGLEWVAYISSGSSTIYYADTVKGRFTISRDNAKNSLYLQMTSLRAEDTAMYYCARRGLLLDYWGQGTLVTVSS
VL: DIVLTQSPASLAVSPGQRATITCRASKSVSTSSYSYMHWYQQKPGQPPKLLIYYASYLESGVPARFSGSGSGTDFTLTINPVEANDTANYYCQHSREFPWTFGGGTKVEIK
notes: humanized VH3 (CDR graft of 3E10 on germline IGHV3-48*01, with N31); human IgG1 heavy chain constant region; humanized VL1 (CDR graft of 3E10 on germline IGKV7-3*01); IgG1; all humanized variants contain the D31N mutation; source: Chinese hamster ovary cells, purified (Genscript)

binding result: binds
B2: full-length chimeric WT 3E10 (murine variable chains, human IgG1 Fc domain) (antibody, V domains shown)
VH: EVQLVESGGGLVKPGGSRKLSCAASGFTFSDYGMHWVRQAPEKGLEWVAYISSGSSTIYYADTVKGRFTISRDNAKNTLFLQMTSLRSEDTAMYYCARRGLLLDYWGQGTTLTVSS
VL: B1 VL with P15L, T22S, Y53K, T78N, N80H, A84E, N85E, T87A, N89T, V108L
notes: murine 3E10 VH, wild type (D31 in CDR1); human IgG1 heavy chain constant region; murine 3E10 VL, wild type; IgG1 chimera; also called parental 3E10; source: purified antibody
